Experimental data as given in the nanobody polyreactivity screen of Harvey et al. (2022).

Test: yeast display, Sf9 membrane polyspecificity reagent, FACS + sequencing; frameworks hold sequencing errors
Summary of the method: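 Nanobodies came from a synthetic yeast display library in Saccharomyces cerevisiae BJ5465, induced with galactose for 36–48 hours and stained for 1 hour at 4 °C with 10% biotinylated, detergent-solubilized Sf9 membrane reagent. Cells were enriched on streptavidin microbeads and then FACS-sorted, with low and high (top ~1%) gates set on anti-HA fluorescence for expression and streptavidin fluorescence for reagent binding. Each polyreactivity label reflects the gate a clone came from. Genes were amplified by colony PCR, sequenced by MiSeq 2 × 250 and filtered by CDR length.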

Row | Sequence | polyreactivity (PSR sort gate)
1 | QVQLVESGGGLVQAGGSLRLSCAASGGIFYFYAMGWYRQAPGKERELVAVITWSGGRTRYADSVKGRFTISRDNAKNTVYLQMNSLKPEDTAVYYCATYGVNPPGVEEYNYWGQGTQVTVSS | high polyreactivity
2 | QVQLVESGGGLVQAGGSLRLSCAASGGIFYIYAMGWYRQAPGQERELVAAISWRGTSTYYADSVKGRFTISRDNAKNTVYLQMNRLKPEDTAVYYCAADFSYTSYATRYQGDYWGQGTQVTVSS | low polyreactivity
3 | QVQLVESGGGLVQAGGSLRLSCAASGGIFYLYAMGWYRQAPGKERELVAAISWSGTSTYYADSVKGRFTISRDNAKNTVYLQMNSLKPEDTAVYYCAADYERYYAKAINYDYWGQGTQVTVSS | low polyreactivity
4 | QVQLVESGGGLVQAGGSLRLSCAASGGIFYPYAMGGYRQAPGKERELVASIDVSDGSTYYADSVKGRFTISRDNAKNTVYLQMNSLKPEDTAVYYCAADRYYKAIDFEGDYWGQGTQVTVSS | low polyreactivity
5 | QVQLVESGGGLVQAGGSLRLSCAASGGIFYRYAMGWYRQAPGKERELVAAITRSGANTYYADSVKGRFTISRDNAKNTVYLLMNSLKPEDTAVYYCNARSYLYYSGQYDYWGQGTQVTVSS | high polyreactivity
6 | QVQLVESGGGLVQAGGSLRLSCAASGGIFYRYAMGWYRQAPGKERELVAAITSSGGSTYYADSVKGRFTISRDNAKNTVYLQMNSLKPEDTAVYYCAADYGYYGAGSYFDRGDYWGQGTQVTVSS | high polyreactivity
7 | QVQLVESGGGLVQAGGSLRLSCAASGGIFYRYVMRWYRQAPGKERELVAAITFSGGSTYYSDSVKGRFTISRDNAKNTVYLQMNSLKPEDTAVYYCAADTYYNPYWLDYWGQGTQVTVSS | low polyreactivity
8 | QVQLVESGGGLVQAGGSLRLSCAASGGIFYSYAMGWYRQAPGKERELVAAISGRGGSTYYADSVKGRFTISRDNAKNSVNLQMNSLKPEDTAVYYCNALGSQRYDYWGQGTQVTVSS | high polyreactivity
9 | QVQLVESGGGLVQAGGSLRLSCAASGGIFYSYAMGWYRQAPGKERELVAALSRGSRTYYADSVKGRFTISRDNAKNTVYLQMNSLKPEDTAVYYCAAYIVGSYRDGYWGQGTQVSVSS | high polyreactivity
10 | QVQLVESGGGLVQAGGSLRLSCAASGGIFYTYALGWYRQAPGKERELVAGINWSGSSTYYADSVKGRFTISRDNAKNTVYLQMNSLKPEDTAVYYCAARSYSYSTGDYWGQGTQVTVSS | low polyreactivity
11 | QVQLVESGGGLVQAGGSLRLSCAASGGIFYTYAMGWYRQAPGKERELVAAISSSGGSTYYADSVKGRFTISRDNAKNTVYLQMNSLKPEDTAVYYCAKDSSTGAGARRRYGYWGQGTQVTVSS | low polyreactivity
12 | QVQLVESGGGLVQAGGSLRLSCAASGGIFYVNAMGWYRQAPGKERELVAAITSDGVSTYYADSVKGRFTISRDNAKNTVYLQMNSLKPEDTAVYYCAARFQYYRKYDYWGQGTQVTVSS | low polyreactivity
13 | QVQLVESGGGLVQAGGSLRLSCAASGGIFYYYAMGWYRQAPGKERELVAAISWSGGSTYYADSVKGRFTISRDNAKNTVYLQMNSLKPDDTAVYYCATYSDFHYAQLEYDYWGQGTQVTVSS | low polyreactivity
14 | QVQLVESGGGLVQAGGSLRLSCAASGGIIGHYDMGWYRQAPGKERELVAAIIGGGSTNYADSVKGRFTISRDNAKNTVYLQMNSLKPEDTAVYYCNVAHGTQGWWGRNDYWGQGTQVTVSS | low polyreactivity
15 | QVQLVESGGGLVQAGGSLRLSCAASGGIIQNYVMGWYRQAPGKEREFVATISQRGGITYYADSVKGRFTISRDNAKNTVYLQMNSLKPEDTAVYYCAARSYYAVYYWGQGTQVTVSS | high polyreactivity
16 | QVQLVESGGGLVQAGGSLRLSCAASGGILDTYALGWYRQAPGKERELVAAITSGGNTNYADSVKGRFTISRDNAKNTVYLQMNSLKPEDTAVYYCAALYTVSYLTSPVSYRYDYWGQGSQVTVSS | low polyreactivity
17 | QVQLVESGGGLVQAGGSLRLSCAASGGINGTYTMGWYRQAPGKEREMGAAISKRGGNTYYADSVKGRFTISRDNAKNTVYLQMNSLKPEDTAVYYCAKRVSGSPPTAGSLSDSWGQGTQVTVSS | high polyreactivity
18 | QVQLVESGGGLVQAGGSLRLSCAASGGISDVYAMGWYRQAPGKERELVAAINWSGGSTYYADSVKGRFTISRDNAKNTVYLQMNSLKPEDTAVYYCAADPGIIGTFDWYDYWGQGTQVTVSS | low polyreactivity
19 | QVQLVESGGGLVQAGGSLRLSCAASGGISSSNAMGWYRPAPGKERELVAGINSRGGSTYADSVKGRFTISRDNAKHTVYLQMNSLKPEDTAVYYCAAAPTFKWRRNNYDYWGQGTQVTVSS | high polyreactivity
20 | QVQLVESGGGLVQAGGSLRLSCAASGGIYGNYAMGWYRQAPGKERELVADITTGGSTYYADSVKGRFTISRDNAKNTVYLQMNSLKPEDTAVYYCNARSLFHRFSSYKYDYWGQGTQVTVST | high polyreactivity

Row | Sequence | polyreactivity (PSR sort gate)
21 | QVQLVESGGGLVQAGGSLRLSCAASGGIYYRYAKGWYRQAPGKERDLVAVISRSGSTYYADSVKGRFTMSRDNAQNTVYLQMNSLKPEDTAVYYCAAYSRCRYGLVPYDYWGQGTQVTVSS | high polyreactivity
22 | QVQLVESGGGLVQAGGSLRLSCAASGGNFTYNAMGWYRQAPGKERELVASISRGGGSTYYADSVKGRFTISRDNAKNTVYLQMNSLKPEDTAVYYCAASFIVGYYGYDYWGQGTQVTVSS | low polyreactivity
23 | QVQLVESGGGLVQAGGSLRLSCAASGGPFYTYTMGWYRQAPGKERELVAAISFSDASTYYADSVKGRFTISRDNAKNTVFLQMNSLKPEDTGVYYCNAGVLQWVYYPFDYWGQGTQVTVSS | low polyreactivity
24 | QVQLVESGGGLVQAGGSLRLSCAASGGSFGMNAMGWYRKAPGKERELVASINANGGSTYYADSVKGRFTISRDNAKNTVYLQMNSLKPEDTAVYYCAVVVTRYNHNEYNSWGQGTQVTVSS | low polyreactivity
25 | QVQLVESGGGLVQAGGSLRLSCAASGGTFAFNAMGWYRQAPGKERELVATIRYSGGSTYADSVKGRFTISRDNAKNTVYLQMNSLKPEDTAVYYCAASGYYIFSWRYDYWGQGTQVTVSS | low polyreactivity
26 | QVQLVESGGGLVQAGGSLRLSCAASGGTFARNAMGWYRQAPGKERELVATITRRAGNTYYADSVKGRFTISRDNAKNTVYLEMNSLKREDTAVYYCAGVATWGFYPYLIPEVGNDYWGQGTQVTVSS | high polyreactivity
27 | QVQLVESGGGLVQAGGSLRLSCAASGGTFARYAMGWYRQAPGKERELVAAITRSGGTTYYADSVKGRFTISRDNAKNTVYLQMNSLKPEDTAVYYCAALPIVDYYGYGYWGQGTQVNVSS | high polyreactivity
28 | QVQLVESGGGLVQAGGSLRLSCAASGGTFAVNVMGWYRQAPGKERELVAAITSNGGSTYYADSVKGRFTISRDNAKNTVYLQMNSLTPEATAVYYCAAEGSGWYTGHYYYWGQGTQVTVSS | low polyreactivity
29 | QVQLVESGGGLVQAGGSLRLSCAASGGTFAYYAMGWSRQAPGKERELVAAISSGGSTNYADSVKGRFTISRDNAKNTVNLQMNSLKPEDTAGYFCAADYYGPFYGYTYDYWGQGTQVTVSS | low polyreactivity
30 | QVQLVESGGGLVQAGGSLRLSCAASGGTFDNYAMGWYRQAPGKERELVAAISWSGDNTYYADSVKGRFTISRDNAKNTVYLQMNSLKPEDTAVYYCAAVYFWYSYDEGYTAYDYWGQGTQVTVSS | low polyreactivity
31 | QVQLVESGGGLVQAGGSLRLSCAASGGTFDPSAMGWYRQAPGKERDFVAAISWSGGRTYYADSVKGRFTISRDNAKNTVYLQMNSLKPEDTAVYYCAATSVGYAQRRYGYWGQGTQVTVSS | high polyreactivity
32 | QVQLVESGGGLVQAGGSLRLSCAASGGTFDTYDMGWYRQAPGKERELVAAIRFGDGTTYYADSVKGRFTISRDNAKNTVYLQMNSLKPEDTAVYYCAAVFVWQPQYDQFRYDYWGQGTQVTVSS | low polyreactivity
33 | QVQLVESGGGLVQAGGSLRLSCAASGGTFDVNAMGWYRQAPGKERELVAAITWSGGNTYYADSVKGRFTISRDNAKNTVYLQMTSLKPEDTAVYYCATDFSPVYYTRYDYWGQGTQVTVSS | low polyreactivity
34 | QVQLVESGGGLVQAGGSLRLSCAASGGTFDVYTMGWYRQAPGKERELVAAIDNGGSTNYADSVKGRFTISRDNAKNTVYLQMNSLKPEDTAVYYCAADEVYLFWGIAEFIYDYWGQGTQVTVSS | low polyreactivity
35 | QVQLVESGGGLVQAGGSLRLSCAASGGTFDWNTMGWYRQAPGKERELVASITSGGRTNYAASVKGRFTISRDNAMNPVYLQLNSLKPEDTAVYYCANYPRSAYPWQTWVGQKFDYWGQGTQVTVSS | low polyreactivity
36 | QVQLVESGGGLVQAGGSLRLSCAASGGTFETYALGWYIPAPGKEREFVAANSRSGGSTYYADSVKGRFTISRDNAKNTVYLQMNSLKPEDTAVYYCAAEGYDLSSRVYGGYDYWGQGTQVTVSS | low polyreactivity
37 | QVQLVESGGGLVQAGGSLRLSCAASGGTFFTNAMGWYRQAPGKERELVAVITGSGGRTYYADSVKGRFTISRDNAKNTVYLQMNSLKPEDTAVYYCAARGYSWGQGTQVTVSS | high polyreactivity
38 | QVQLVESGGGLVQAGGSLRLSCAASGGTFGQYAMGWYRLAPGKERELVAAITSSGGRKYYADSVKGRFTISRDNAKNTVYLQMNSLKPEDTAVYYCAADVQSRYVGEGDYWGQGTQVTVSS | high polyreactivity
39 | QVQLVESGGGLVQAGGSLRLSCAASGGTFGQYAMGWYRQAPGKERELVAAITSSGGRTYYADSVKGRFTISRDNAKNTVYLQMNSLKPEDTAVYYCAADVQSRYVGEGDYWGQGTQVTVSS | high polyreactivity
40 | QVQLVESGGGLVQAGGSLRLSCAASGGTFGSYAMGWYRQAPGKDRELVAAITGSGGRTYYADTVKGRFTISRDNAKNTVYLQMKSLKPEDTAVYYCNATRGIGTPYYYWGQGTQVTVSS | high polyreactivity
